From patent publication US20060222638A1, “Cholesterol biosynthesis pathway modulators and uses thereof” (priority 2003, published 2006)
Entries after “also recorded” stand apart in the source; their conditions may differ. Like-named read-outs stand apart in the source and are kept apart here.

Assays:
[1] = target: T1, HMG-CoA reductase (Homo sapiens, UniProt P04035); experiment: HMGCoA reductase activity assay, HepG2 cells treated with inhibitors, cell proteins used as enzyme source; type: cell-based
T1 construct: The cell proteins were used as enzyme source; endogenous in cells; host or cells: HepG2
T1 sequence (P04035 1-888): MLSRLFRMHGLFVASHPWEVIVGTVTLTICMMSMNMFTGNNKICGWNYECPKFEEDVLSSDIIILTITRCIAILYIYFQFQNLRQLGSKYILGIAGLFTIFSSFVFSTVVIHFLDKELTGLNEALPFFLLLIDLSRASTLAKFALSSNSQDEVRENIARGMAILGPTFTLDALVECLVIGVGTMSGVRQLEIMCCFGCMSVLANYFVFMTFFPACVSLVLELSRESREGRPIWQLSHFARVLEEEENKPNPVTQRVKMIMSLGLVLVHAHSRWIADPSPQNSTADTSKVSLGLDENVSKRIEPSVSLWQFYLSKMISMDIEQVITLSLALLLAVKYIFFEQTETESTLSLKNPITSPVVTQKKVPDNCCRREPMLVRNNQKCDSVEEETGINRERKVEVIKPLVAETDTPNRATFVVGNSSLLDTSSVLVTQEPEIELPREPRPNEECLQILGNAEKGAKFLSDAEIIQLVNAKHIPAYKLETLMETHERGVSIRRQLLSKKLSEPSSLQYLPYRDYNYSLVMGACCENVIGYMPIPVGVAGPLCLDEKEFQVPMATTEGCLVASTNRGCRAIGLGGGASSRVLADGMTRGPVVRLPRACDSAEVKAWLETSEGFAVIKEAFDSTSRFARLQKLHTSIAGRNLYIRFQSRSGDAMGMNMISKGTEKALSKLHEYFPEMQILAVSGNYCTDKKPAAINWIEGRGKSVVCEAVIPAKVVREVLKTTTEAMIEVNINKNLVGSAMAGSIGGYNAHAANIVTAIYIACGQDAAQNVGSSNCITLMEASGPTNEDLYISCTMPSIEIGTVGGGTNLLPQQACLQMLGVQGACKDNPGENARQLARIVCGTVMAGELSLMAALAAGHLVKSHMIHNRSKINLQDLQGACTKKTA
Procedure: The cell stocks of Human Hepatoma cell line-HepG2 were cultured in T-25 flask in Eagle's minimum essential medium (MEM), supplemented with 10% fetal bovine serum, and incubated in a humidified incubator (5% CO2) at 37° C.
After 4 hours incubation with the inhibitors, the media was discarded and cells were washed with 0.90%saline. The cells were scraped and collected into a 50 ml tube. The cells were centrifuged at 2400 rpm for 5 min at 4 C, and the resulting cell pellet was washed twice with 10 ml saline. The final cell pellet was resuspended in 30 μl lysis buffer and briefly sonicated. The suspension was centrifuged at 14,000 rpm for 15 min and the supernatant containing the enzyme, HMGCoA reductase, was used for the assay.
In biosynthesis of cholesterol, HMG-CoA reductase is the key enzyme to convert HMG-CoA to its product mevalonate. In the presence of HCl, the mevalonate is converted into mevalonolactone. […] It will retain HMG-CoA, which is negatively charge in the column but not mevalonolactone, which will be eluted out by ammonium formate.
The 50 μl assay buffer (100 mM potassium dihydrogen phosphate, 4 mM dithiothreitol, 20 mM glucose-6-phosphate, 20 unit glucose-6-phosphate dehydrogenase, 2.5 mM NADP^+, 30 μM [14C] HMG-CoA (0.01 μCi) and microsomal protein) was incubated at 37° C. for 1 hour. Reaction was terminated by addition of 25 μl of 2M HCl. After 30 min lactonization of mevalonate to mevalonolactone, 500 μl of 20 mM ammonium formate was added to each sample, spun for 5 min at 14,000 rpm.
Supernatant was applied to the column that is pre-packed with QAE-Sephadex (4 cm), equilibrated with ammonium formate. The first 5 ml fractions was eluted with 20 mM ammonium formate, followed by 5 ml of 0.05M HCl and 10 ml of 0.1M HCl. Radioactivity of the first 5 ml (1 ml fraction) was determined using Beckman LS6500 scintillation counter.

[2] = system: HepG2 cell; experiment: Microarray analysis (global gene expression, HG_U133A chips) of treated HepG2 cells; type: cell-based, human
Procedure: The global gene expression (DNA microarray) analysis was carried out on human gene chips (HG_U133A). […] Genes showing two-fold signal to log ratio in expression from two independent experiments were scored as significant.

[3] = target: T2, HMG-CoA reductase from human hepatoma HepG2 cells (human) (UniProt P04035); experiment: cell-based or functional assay
T2 sequence: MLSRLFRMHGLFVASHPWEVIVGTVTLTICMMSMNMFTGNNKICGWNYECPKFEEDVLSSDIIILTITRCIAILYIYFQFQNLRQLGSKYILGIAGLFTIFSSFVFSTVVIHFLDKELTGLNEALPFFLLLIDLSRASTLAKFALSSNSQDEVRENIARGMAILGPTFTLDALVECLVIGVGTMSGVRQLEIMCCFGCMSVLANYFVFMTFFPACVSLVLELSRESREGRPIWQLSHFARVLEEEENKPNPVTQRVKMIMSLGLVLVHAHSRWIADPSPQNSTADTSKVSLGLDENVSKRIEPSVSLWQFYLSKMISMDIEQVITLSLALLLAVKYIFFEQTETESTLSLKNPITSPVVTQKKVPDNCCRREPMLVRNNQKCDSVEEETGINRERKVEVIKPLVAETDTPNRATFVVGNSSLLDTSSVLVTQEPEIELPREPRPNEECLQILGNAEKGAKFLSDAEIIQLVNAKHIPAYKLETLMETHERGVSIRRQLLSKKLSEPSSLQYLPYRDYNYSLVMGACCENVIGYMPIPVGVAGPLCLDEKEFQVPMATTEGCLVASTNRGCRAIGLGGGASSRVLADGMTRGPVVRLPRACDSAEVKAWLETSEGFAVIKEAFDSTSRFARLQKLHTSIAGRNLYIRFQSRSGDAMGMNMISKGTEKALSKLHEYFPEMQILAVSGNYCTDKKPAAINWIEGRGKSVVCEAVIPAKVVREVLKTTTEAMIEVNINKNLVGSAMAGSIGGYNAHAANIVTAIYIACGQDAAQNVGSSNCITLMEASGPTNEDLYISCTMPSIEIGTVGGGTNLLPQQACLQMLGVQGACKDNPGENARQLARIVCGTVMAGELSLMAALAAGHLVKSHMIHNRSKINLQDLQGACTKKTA

[4] = system: HepG2 cell protein profile; experiment: Protein profiling by SELDI-TOF (H4 and NP20 chips) of treated HepG2 cells; type: cell-based, human; conditions: Table 3A, hydrophobic chip H4
Excerpt: As for the protein profiling data, the profiles as shown in Table 3 were obtained by surface-enhanced laser […] ionization-time of flight mass spectro-photometry (SELDI-TOF) on treated and control samples using the H4 (hydrophobic) and the NP20 (hydrophilic) chips.

[5] = target: T3, HMGCoA reductase (Rattus norvegicus, UniProt P51639); experiment: HMGCoA reductase assay using the enzyme isolated from rat hepatocytes, inhibitors added to the enzyme assay; type: biochemical; conditions: enzyme from rat hepatocytes / rat liver microsomes
T3 construct: enzymes purified from the rat liver microsomes; from tissue; host or cells: rat hepatocytes / rat liver microsomes
T3 sequence (P51639 1-887): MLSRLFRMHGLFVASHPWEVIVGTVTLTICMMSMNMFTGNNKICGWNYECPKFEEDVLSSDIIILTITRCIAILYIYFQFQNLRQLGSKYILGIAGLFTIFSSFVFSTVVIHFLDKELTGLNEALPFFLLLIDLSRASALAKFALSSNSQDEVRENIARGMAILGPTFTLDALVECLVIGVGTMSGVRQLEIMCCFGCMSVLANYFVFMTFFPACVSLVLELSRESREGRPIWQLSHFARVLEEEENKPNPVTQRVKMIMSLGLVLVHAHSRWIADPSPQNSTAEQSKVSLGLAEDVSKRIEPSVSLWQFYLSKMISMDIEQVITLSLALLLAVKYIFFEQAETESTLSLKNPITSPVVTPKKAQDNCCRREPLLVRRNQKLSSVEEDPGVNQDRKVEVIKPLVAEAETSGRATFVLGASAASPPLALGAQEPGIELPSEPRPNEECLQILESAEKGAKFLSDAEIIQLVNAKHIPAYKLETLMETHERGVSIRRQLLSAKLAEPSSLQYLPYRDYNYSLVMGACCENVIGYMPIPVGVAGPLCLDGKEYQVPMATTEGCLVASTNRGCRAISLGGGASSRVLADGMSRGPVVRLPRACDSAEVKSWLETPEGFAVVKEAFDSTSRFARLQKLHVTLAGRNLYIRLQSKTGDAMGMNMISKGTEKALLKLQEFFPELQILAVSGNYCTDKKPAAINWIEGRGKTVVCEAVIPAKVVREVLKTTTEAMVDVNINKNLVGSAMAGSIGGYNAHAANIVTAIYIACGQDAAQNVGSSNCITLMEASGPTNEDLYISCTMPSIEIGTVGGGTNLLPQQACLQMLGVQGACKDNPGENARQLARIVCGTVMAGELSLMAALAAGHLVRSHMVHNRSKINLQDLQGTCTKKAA

[6] = HepG2, read-out: % of inhibition on HMG-CoA reductase activity, DMSO medium
[7] = HepG2 cells treated with synthetic peptides or statins at 10 μM, vs untreated cells

CC(C)c1c(C(=O)Nc2ccccc2)c(-c2ccccc2)c(-c2ccc(F)cc2)n1CC[C@@H](O)C[C@@H](O)CC(=O)O [Atorvastatin, reference compound]
inhibition at 10 µM [1, 6]: 70%

CC(C)n1c(/C=C/C(O)CC(O)CC(=O)O)c(-c2ccc(F)cc2)c2ccccc21 (centres unmarked) [Fluvastatin, reference compound]
inhibition at 10 µM ([1]; HepG2 cells treated with synthetic peptides or statins at 10 μM, vs untreated cells, read-out: % of inhibition on HMG-CoA reductase activity, DMSO medium): 74%

CC[C@H](C)C(=O)O[C@H]1CCC=C2C=C[C@H](C)[C@H](CC[C@@H]3C[C@@H](O)CC(=O)O3)[C@H]21 [Mevastatin, reference compound]
% of inhibition on HMG-CoA reductase activity, Aqueous medium ([1]; 10 µM): 35%
% of inhibition on HMG-CoA reductase activity, DMSO medium ([1]; 10 µM): 60%

CCC(C)(C)C(=O)O[C@H]1C[C@@H](C)C=C2C=C[C@H](C)[C@H](CC[C@@H]3C[C@@H](O)CC(=O)O3)[C@H]21 [Simvastatin, reference compound]
inhibition at 10 µM ([1]; HepG2, read-out: % of inhibition on HMG-CoA reductase activity, Aqueous medium): 35%
inhibition at 10 µM [1, 6]: 65%

DSLSPWNEGDTYYG (Buthus martensii Karsch) [Peptide 6]
% of inhibition on HMG-CoA reductase activity, Aqueous medium [1, 7]: 4%

GCQRQTDEFCNKICKLHLASG (Buthus martensii Karsch) [Peptide 5]
% of inhibition on HMG-CoA reductase activity, Aqueous medium [1, 7]: 2%

GDTYYG (Buthus martensii Karsch) [Peptide 9]
% of inhibition on HMG-CoA reductase activity, Aqueous medium [1, 7]: 3%

KLHLASGGSCQQPAPFVKL (Buthus martensii Karsch) [Peptide 2]
% of inhibition on HMG-CoA reductase activity, Aqueous medium [1, 7]: 30%
% of inhibition on HMG-CoA reductase activity, DMSO medium [1, 7]: 7%

LSPWNEGDTYYGCQR (Buthus martensii Karsch) [Peptide 7]
% of inhibition on HMG-CoA reductase activity, Aqueous medium [1, 7]: 2%

PAPFVKLCTCQGIDYDNSFFFG (Buthus martensii Karsch) [Peptide 3]
% of inhibition on HMG-CoA reductase activity, Aqueous medium [1, 7]: 10%
% of inhibition on HMG-CoA reductase activity, DMSO medium [1, 7]: 15%

QGIDYDNSFFFGALEKQCPK (Buthus martensii Karsch) [Peptide 4]
% of inhibition on HMG-CoA reductase activity, Aqueous medium [1, 7]: 7%

QPAPFVKLCTCQGI (Buthus martensii Karsch) [Peptide 1]
% of inhibition on HMG-CoA reductase activity, Aqueous medium [1, 7]: 20%
% of inhibition on HMG-CoA reductase activity, DMSO medium [1, 7]: 20%

SPWNEGD (Buthus martensii Karsch) [Peptide 8]
% of inhibition on HMG-CoA reductase activity, Aqueous medium [1, 7]: 1%

B1: JCH2 native protein purified from Buthus martensii Karsch venom (protein)
chain: DSLSPWNEGDTYYGCQRQTDEFCNKICKLHLASGGSCQQPAPFVKLCTCQGIDYDNSFFFGALEKQCPKLRE
HMGCoA reductase mRNA (in words) ([2]; microarray): reducing the reductase mRNA
mevalonate, the precursor for cholesterol biosynthesis (in words) ([2]; microarray analysis): lowering the mevalonate
% of inhibition on HMG-CoA reductase activity, aqueous medium, JCH2 at 0.6 µM (10 µg) [3]: 30%
ApoC-II/III (8.8 kDa) [4]: ↑ ↑
StAR related lipid transfer protein (23.0 kDa) [4]: ↑ ↑
HMGCoA reductase inhibitory activity compared with statins (in words) ([1]; HepG2 cell HMGCoA reductase, JCH2 0.6 μM vs statins 10 μM): lowering the HMGCoA reductase activity at much lower concentrations than the known inhibitors; also recorded: higher inhibitory activity
% of inhibition on HMG-CoA reductase activity, Aqueous medium ([1]; HepG2 cells treated with native proteins at 10 μg each (JCH2 0.6 μM), vs untreated cells): 30%
HMGCoA reductase inhibitory activity (in words) [5]: higher inhibitory activity
